Source: US6319685A (Unigene Laboratories, Inc., priority 1987, dated 2001)

Tests used:
[1] = specific alpha-amidating activity, conversion of Dansyl-D-Tyr-Val-Gly to Dansyl-D-Tyr-Val-CONH2; format: biochemical; details: CA-77 media
Experimental: These and other objects will become apparent from a thorough reading of the present disclosure. […] All specific activity units set forth herein are based upon the conversion of Dansyl-D-Try-Val-Gly-COOH to Dansyl-D-Tyr-Val-CONH2. One mU is defined as the amount of activity needed to convert one nanomole (nmole) of Dansyl-D-Tyr-Val-Gly-COOH to one nmole of Dansyl-D-Tyr-Val-CONH2 per minute at 37° C. and pH 7.0 in the presence of ascorbate ions at a concentration of 3 mM (based on total reaction mixture including enzyme, substrate, co-factors, etc.), molecular oxygen in a molar excess over substrate and a concentration of cupric ions effective to maximize activity (usually about 2 μM depending on the state of purity of the enzyme).
Each purification step can be monitored for both protein content and the level of alpha-amidation activity. This information is used to calculate the specific activity of the enzyme which serves as an indicator of the relative purity of the enzyme.
Sephacryl S-300 (Pharmacia) was equilibrated in 50 mM Tris HCl pH 7.0 and poured into a K 50/100 column (Pharmacia) according to the manufacturer's instructions. The bed volume of the column was approximately 1.3 liters. The Sample was loaded onto the column in a volume representing approximately 3 percent of the bed volume of the column. Proteins were eluted from the column in 50 mM Tris HCl pH 7.0 at a flow rate of approximately 2 ml per minute.
The reaction mixture for the conversion of the monodansyl substrate contained:
The samples were prepared in duplicate and incubated at 37° C. for 10, 20 and 30 minutes time periods. The enzymatic reaction was halted by the addition of 10 ul 500 mM EDTA.

[2] = nonspecific proteolytic activity of enzyme preparation; format: biochemical; details: CA-77 media, after DEAE and Sephacryl 300-SF

B1: alpha-amidating enzyme (CA-77): alpha-amidating enzyme derived from CA-77 cell tissue culture media (protein, UniProt P14925 36-976, looked up)
Peptidylglycine …: FKETTRSFSNECLGTIGPVTPLDASDFALDIRMPGVTPKESDTYFCMSMRLPVDEEAFVIDFKPRASMDTVHHMLLFGCNMPSSTGSYWFCDEGTCTDKANILYAWARNAPPTRLPKGVGFRVGGETGSKYFVLQVHYGDISAFRDNHKDCSGVSVHLTRVPQPLIAGMYLMMSVDTVIPPGEKVVNADISCQYKMYPMHVFAYRVHTHHLGKVVSGYRVRNGQWTLIGRQNPQLPQAFYPVEHPVDVTFGDILAARCVFTGEGRTEATHIGGTSSDEMCNLYIMYYMEAKYALSFMTCTKNVAPDMFRTIPAEANIPIPVKPDMVMMHGHHKEAENKEKSALMQQPKQGEEEVLEQGDFYSLLSKLLGEREDVHVHKYNPTEKTESGSDLVAEIANVVQKKDLGRSDAREGAEHEEWGNAILVRDRIHRFHQLESTLRPAESRAFSFQQPGEGPWEPEPSGDFHVEEELDWPGVYLLPGQVSGVALDSKNNLVIFHRGDHVWDGNSFDSKFVYQQRGLGPIEEDTILVIDPNNAEILQSSGKNLFYLPHGLSIDTDGNYWVTDVALHQVFKLDPHSKEGPLLILGRSMQPGSDQNHFCQPTDVAVEPSTGAVFVSDGYCNSRIVQFSPSGKFVTQWGEESSGSSPRPGQFSVPHSLALVPHLDQLCVADRENGRIQCFKTDTKEFVREIKHASFGRNVFAISYIPGFLFAVNGKPYFGDQEPVQGFVMNFSSGEIIDVFKPVRKHFDMPHDIVASEDGTVYIGDAHTNTVWKFTLTEKMEHRSVKKAGIEVQEIKEAEAVVEPKVENKPTSSELQKMQEKQKLSTEPGSGVSVVLITTLLVIPVLVLLAIVMFIRWKKSRAFGDHDRKLESSSGRVLGRFRGKGSGGLNLGNFFASRKGYSRKGFDRVSTEGSDQEKDEDDGTESEEEYSAPLPKPAPSS
[1]; after DEAE and Sephacryl 300-SF
  activity: at least 50 mU/mg protein
[1]; fractions from DEAE weak anion exchange cartridge
  specific activity: 10-15 mU/mg
[2]
  nonspecific proteolytic activity: free of nonspecific proteolytic activity
